Source: patent publication US20210139548A1 (published 2021)
Blank lines part the entries; values can stand above or below the binder they belong to. *1 amine or outer side, *2 acyl side, *3 side chain or, on linkers, in order; H or OH if unused. Side-chain parts run from the residue outwards. The star is where a group is joined. C18 diacid = O=C(O)CCCCCCCCCCCCCCCCC(=O)*; γGlu = O=C(O)[C@H](CCC(=O)[*:2])N[*:1]; Isovaleryl = CC(C)CC(=O)*; AEEA = NCCOCCOCC(=O)O

Biological target: T1, human neuropeptide Y2 receptor (human, UniProt P49146 1-381)
T1 construct: whole, on cells; also called hNPY2 receptor; hNPY2-R
T1 sequence (looked up): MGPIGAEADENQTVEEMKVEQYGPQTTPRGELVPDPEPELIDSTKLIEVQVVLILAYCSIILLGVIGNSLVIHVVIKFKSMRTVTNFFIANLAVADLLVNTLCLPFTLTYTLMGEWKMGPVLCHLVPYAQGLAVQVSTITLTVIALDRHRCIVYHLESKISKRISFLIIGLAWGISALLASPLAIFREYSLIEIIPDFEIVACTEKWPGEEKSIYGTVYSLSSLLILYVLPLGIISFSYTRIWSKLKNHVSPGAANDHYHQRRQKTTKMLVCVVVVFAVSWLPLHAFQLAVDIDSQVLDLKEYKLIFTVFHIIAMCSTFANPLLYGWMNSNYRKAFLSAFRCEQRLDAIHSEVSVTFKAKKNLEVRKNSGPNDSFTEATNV
Experiment: radioligand competition (125I-PYY(1-36)), hNPY2R membranes
How it was run: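 Commercial human Y2 receptor membranes (0.5 μg protein/well) were incubated with peptide for 2 h at room temperature in 50 mM HEPES, 5 mM MgCl₂, 1 mM CaCl₂, pH 7.4, with 0.2% ovalbumin. Bound radioligand was separated on PEI-soaked GF/C filters and counted by scintillation, and IC₅₀ came from nonlinear sigmoidal regression.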

B3: Compound 224 (peptide)
peptide: Isovaleryl-APEK([AEEA-AEEA-γGlu-C18 diacid])PGEEASPEELEQYYVSLRHYYNWLTRQRY-NH2
SMILES: CC(C)CC(=O)N[C@@H](C)C(=O)N1CCC[C@H]1C(=O)N[C@@H](CCC(=O)O)C(=O)N[C@@H](CCCCNC(=O)COCCOCCNC(=O)COCCOCCNC(=O)CC[C@H](NC(=O)CCCCCCCCCCCCCCCCC(=O)O)C(=O)O)C(=O)N1CCC[C@H]1C(=O)NCC(=O)N[C@@H](CCC(=O)O)C(=O)N[C@@H](CCC(=O)O)C(=O)N[C@@H](C)C(=O)N[C@@H](CO)C(=O)N1CCC[C@H]1C(=O)N[C@@H](CCC(=O)O)C(=O)N[C@@H](CCC(=O)O)C(=O)N[C@@H](CC(C)C)C(=O)N[C@@H](CCC(=O)O)C(=O)N[C@@H](CCC(N)=O)C(=O)N[C@@H](Cc1ccc(O)cc1)C(=O)N[C@@H](Cc1ccc(O)cc1)C(=O)N[C@H](C(=O)N[C@@H](CO)C(=O)N[C@@H](CC(C)C)C(=O)N[C@@H](CCCNC(=N)N)C(=O)N[C@@H](Cc1c[nH]cn1)C(=O)N[C@@H](Cc1ccc(O)cc1)C(=O)N[C@@H](Cc1ccc(O)cc1)C(=O)N[C@@H](CC(N)=O)C(=O)N[C@@H](Cc1c[nH]c2ccccc12)C(=O)N[C@@H](CC(C)C)C(=O)N[C@H](C(=O)N[C@@H](CCCNC(=N)N)C(=O)N[C@@H](CCC(N)=O)C(=O)N[C@@H](CCCNC(=N)N)C(=O)N[C@@H](Cc1ccc(O)cc1)C(N)=O)[C@@H](C)O)C(C)C
- Ki: 4.64 nM

B4: Compound 219 (peptide)
peptide: Isovaleryl-APEK([AEEA-AEEA-γGlu-C18 diacid])PEEEAAPEELQRYYVSLRHYYNWLTRQRY-NH2
SMILES: CC(C)CC(=O)N[C@@H](C)C(=O)N1CCC[C@H]1C(=O)N[C@@H](CCC(=O)O)C(=O)N[C@@H](CCCCNC(=O)COCCOCCNC(=O)COCCOCCNC(=O)CC[C@H](NC(=O)CCCCCCCCCCCCCCCCC(=O)O)C(=O)O)C(=O)N1CCC[C@H]1C(=O)N[C@@H](CCC(=O)O)C(=O)N[C@@H](CCC(=O)O)C(=O)N[C@@H](CCC(=O)O)C(=O)N[C@@H](C)C(=O)N[C@@H](C)C(=O)N1CCC[C@H]1C(=O)N[C@@H](CCC(=O)O)C(=O)N[C@@H](CCC(=O)O)C(=O)N[C@@H](CC(C)C)C(=O)N[C@@H](CCC(N)=O)C(=O)N[C@@H](CCCNC(=N)N)C(=O)N[C@@H](Cc1ccc(O)cc1)C(=O)N[C@@H](Cc1ccc(O)cc1)C(=O)N[C@H](C(=O)N[C@@H](CO)C(=O)N[C@@H](CC(C)C)C(=O)N[C@@H](CCCNC(=N)N)C(=O)N[C@@H](Cc1c[nH]cn1)C(=O)N[C@@H](Cc1ccc(O)cc1)C(=O)N[C@@H](Cc1ccc(O)cc1)C(=O)N[C@@H](CC(N)=O)C(=O)N[C@@H](Cc1c[nH]c2ccccc12)C(=O)N[C@@H](CC(C)C)C(=O)N[C@H](C(=O)N[C@@H](CCCNC(=N)N)C(=O)N[C@@H](CCC(N)=O)C(=O)N[C@@H](CCCNC(=N)N)C(=O)N[C@@H](Cc1ccc(O)cc1)C(N)=O)[C@@H](C)O)C(C)C
- Ki: 7.6 nM

B6: Compound 223 (peptide)
peptide: Isovaleryl-APEK([AEEA-AEEA-γGlu-C18 diacid])PEEAAEPEELQRYYVSLRHYYNWLTRQRY-NH2
SMILES: CC(C)CC(=O)N[C@@H](C)C(=O)N1CCC[C@H]1C(=O)N[C@@H](CCC(=O)O)C(=O)N[C@@H](CCCCNC(=O)COCCOCCNC(=O)COCCOCCNC(=O)CC[C@H](NC(=O)CCCCCCCCCCCCCCCCC(=O)O)C(=O)O)C(=O)N1CCC[C@H]1C(=O)N[C@@H](CCC(=O)O)C(=O)N[C@@H](CCC(=O)O)C(=O)N[C@@H](C)C(=O)N[C@@H](C)C(=O)N[C@@H](CCC(=O)O)C(=O)N1CCC[C@H]1C(=O)N[C@@H](CCC(=O)O)C(=O)N[C@@H](CCC(=O)O)C(=O)N[C@@H](CC(C)C)C(=O)N[C@@H](CCC(N)=O)C(=O)N[C@@H](CCCNC(=N)N)C(=O)N[C@@H](Cc1ccc(O)cc1)C(=O)N[C@@H](Cc1ccc(O)cc1)C(=O)N[C@H](C(=O)N[C@@H](CO)C(=O)N[C@@H](CC(C)C)C(=O)N[C@@H](CCCNC(=N)N)C(=O)N[C@@H](Cc1c[nH]cn1)C(=O)N[C@@H](Cc1ccc(O)cc1)C(=O)N[C@@H](Cc1ccc(O)cc1)C(=O)N[C@@H](CC(N)=O)C(=O)N[C@@H](Cc1c[nH]c2ccccc12)C(=O)N[C@@H](CC(C)C)C(=O)N[C@H](C(=O)N[C@@H](CCCNC(=N)N)C(=O)N[C@@H](CCC(N)=O)C(=O)N[C@@H](CCCNC(=N)N)C(=O)N[C@@H](Cc1ccc(O)cc1)C(N)=O)[C@@H](C)O)C(C)C
- Ki: 4.77 nM

Now those with a lower Ki, led by results:

- Ki: 0.93 nM
B1: Compound 216 (peptide)
peptide: Isovaleryl-APAK([AEEA-AEEA-γGlu-C18 diacid])PEEDASPEELEQYYVSLRHYYNWLTRQRY-NH2
SMILES: CC(C)CC(=O)N[C@@H](C)C(=O)N1CCC[C@H]1C(=O)N[C@@H](C)C(=O)N[C@@H](CCCCNC(=O)COCCOCCNC(=O)COCCOCCNC(=O)CC[C@H](NC(=O)CCCCCCCCCCCCCCCCC(=O)O)C(=O)O)C(=O)N1CCC[C@H]1C(=O)N[C@@H](CCC(=O)O)C(=O)N[C@@H](CCC(=O)O)C(=O)N[C@@H](CC(=O)O)C(=O)N[C@@H](C)C(=O)N[C@@H](CO)C(=O)N1CCC[C@H]1C(=O)N[C@@H](CCC(=O)O)C(=O)N[C@@H](CCC(=O)O)C(=O)N[C@@H](CC(C)C)C(=O)N[C@@H](CCC(=O)O)C(=O)N[C@@H](CCC(N)=O)C(=O)N[C@@H](Cc1ccc(O)cc1)C(=O)N[C@@H](Cc1ccc(O)cc1)C(=O)N[C@H](C(=O)N[C@@H](CO)C(=O)N[C@@H](CC(C)C)C(=O)N[C@@H](CCCNC(=N)N)C(=O)N[C@@H](Cc1c[nH]cn1)C(=O)N[C@@H](Cc1ccc(O)cc1)C(=O)N[C@@H](Cc1ccc(O)cc1)C(=O)N[C@@H](CC(N)=O)C(=O)N[C@@H](Cc1c[nH]c2ccccc12)C(=O)N[C@@H](CC(C)C)C(=O)N[C@H](C(=O)N[C@@H](CCCNC(=N)N)C(=O)N[C@@H](CCC(N)=O)C(=O)N[C@@H](CCCNC(=N)N)C(=O)N[C@@H](Cc1ccc(O)cc1)C(N)=O)[C@@H](C)O)C(C)C

- Ki: 2.99 nM
B2: Compound 220 (peptide)
peptide: Isovaleryl-APEK([AEEA-AEEA-γGlu-C18 diacid])PEEAASAEELQRYYVSLRHYYNWLTRQRY-NH2
SMILES: CC(C)CC(=O)N[C@@H](C)C(=O)N1CCC[C@H]1C(=O)N[C@@H](CCC(=O)O)C(=O)N[C@@H](CCCCNC(=O)COCCOCCNC(=O)COCCOCCNC(=O)CC[C@H](NC(=O)CCCCCCCCCCCCCCCCC(=O)O)C(=O)O)C(=O)N1CCC[C@H]1C(=O)N[C@@H](CCC(=O)O)C(=O)N[C@@H](CCC(=O)O)C(=O)N[C@@H](C)C(=O)N[C@@H](C)C(=O)N[C@@H](CO)C(=O)N[C@@H](C)C(=O)N[C@@H](CCC(=O)O)C(=O)N[C@@H](CCC(=O)O)C(=O)N[C@@H](CC(C)C)C(=O)N[C@@H](CCC(N)=O)C(=O)N[C@@H](CCCNC(=N)N)C(=O)N[C@@H](Cc1ccc(O)cc1)C(=O)N[C@@H](Cc1ccc(O)cc1)C(=O)N[C@H](C(=O)N[C@@H](CO)C(=O)N[C@@H](CC(C)C)C(=O)N[C@@H](CCCNC(=N)N)C(=O)N[C@@H](Cc1c[nH]cn1)C(=O)N[C@@H](Cc1ccc(O)cc1)C(=O)N[C@@H](Cc1ccc(O)cc1)C(=O)N[C@@H](CC(N)=O)C(=O)N[C@@H](Cc1c[nH]c2ccccc12)C(=O)N[C@@H](CC(C)C)C(=O)N[C@H](C(=O)N[C@@H](CCCNC(=N)N)C(=O)N[C@@H](CCC(N)=O)C(=O)N[C@@H](CCCNC(=N)N)C(=O)N[C@@H](Cc1ccc(O)cc1)C(N)=O)[C@@H](C)O)C(C)C

- Ki: 1.49 nM
B5: Compound 218 (peptide)
peptide: Isovaleryl-APEK([AEEA-AEEA-γGlu-C18 diacid])PEEDSSPEELQRYYVALRHYYNWLTRQRY-NH2
SMILES: CC(C)CC(=O)N[C@@H](C)C(=O)N1CCC[C@H]1C(=O)N[C@@H](CCC(=O)O)C(=O)N[C@@H](CCCCNC(=O)COCCOCCNC(=O)COCCOCCNC(=O)CC[C@H](NC(=O)CCCCCCCCCCCCCCCCC(=O)O)C(=O)O)C(=O)N1CCC[C@H]1C(=O)N[C@@H](CCC(=O)O)C(=O)N[C@@H](CCC(=O)O)C(=O)N[C@@H](CC(=O)O)C(=O)N[C@@H](CO)C(=O)N[C@@H](CO)C(=O)N1CCC[C@H]1C(=O)N[C@@H](CCC(=O)O)C(=O)N[C@@H](CCC(=O)O)C(=O)N[C@@H](CC(C)C)C(=O)N[C@@H](CCC(N)=O)C(=O)N[C@@H](CCCNC(=N)N)C(=O)N[C@@H](Cc1ccc(O)cc1)C(=O)N[C@@H](Cc1ccc(O)cc1)C(=O)N[C@H](C(=O)N[C@@H](C)C(=O)N[C@@H](CC(C)C)C(=O)N[C@@H](CCCNC(=N)N)C(=O)N[C@@H](Cc1c[nH]cn1)C(=O)N[C@@H](Cc1ccc(O)cc1)C(=O)N[C@@H](Cc1ccc(O)cc1)C(=O)N[C@@H](CC(N)=O)C(=O)N[C@@H](Cc1c[nH]c2ccccc12)C(=O)N[C@@H](CC(C)C)C(=O)N[C@H](C(=O)N[C@@H](CCCNC(=N)N)C(=O)N[C@@H](CCC(N)=O)C(=O)N[C@@H](CCCNC(=N)N)C(=O)N[C@@H](Cc1ccc(O)cc1)C(N)=O)[C@@H](C)O)C(C)C
